Assay results taken from patent publication US20040180417.

Columns and labels:
[1] = molecular target: T1, PC cleavage site-spanning peptide of proBACE
T1 chain: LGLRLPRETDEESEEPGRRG

[2] = molecular target: [proBACES-R45A]FG/V5
[3] = molecular target: [proBACES]FG/V5, doubly tagged soluble form of mouse proBACE
[4] = molecular target: T2, 20 aa synthetic peptide spanning the β-secretase cleavage site of βAPPSW
T2 chain: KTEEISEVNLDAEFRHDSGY

| Protein | cleavage of the peptide spanning the N-terminal furin-consensus site [1] | in vitro processing of the R45A mutant of proBACES, Western blot [2] | in vitro processing of proBACE into BACE, Western blot with FG or V5 antibodies [3] | cleavage of the peptide spanning the N-terminal furin-consensus site, RP-HPLC and MALDI-TOF [1] | β-secretase activity of affinity-purified proBACE on the synthetic peptide substrate [4] |
| --- | --- | --- | --- | --- | --- |
| [BACES]V5, soluble mouse BACE ending at Thr454 followed by a V5 epitope (protein) THLGIRLPLRSGLAGPPLGLRLPRETDEESEEPGRRGSFVEMVDNLRGKSGQGYYVEMTRGQPLTKLNILVDTGSSNFAVGAAPHPFLHRYYQRQLSSTYRDLRKGVYVPYTQGKWEGELGTDLVSIPHGPNVTVRANIAAITESDKFFINGSNWEGILGLAYAEIARPDDSLEPFFDSLVKQTHIPNIFSLQLCGAGFPLNQTEALASVGGSMIIGGIDHSLYTGSLWYTPIRREWYYEVIIVRVEINGQDLKMDCKEYNYDKSIVDSGTTNLRLPKKVFEAAVKSIKAASSTEKFPDGFWLGEQLVCWQAGTTPWNIFPVISLYLMGEVTNQSFRITILPQQYLRPVEDVATSQDDCYKFAVSQSSTGTVMGAVIMEGFYVVFDRARKRIGFAVSACHVHDEFRTAAVEGPFVTADMEDCGYNIPQTDESTGKPIPNPLLGLDST | no detectable cleavage of this peptide was observed by either crude or partially purified soluble BACE [BACES]V5 (not shown) | – | – | – | – |
| PACE4 (protein) QVRSDPQALYFNDPIWSNMWYLHCGDKNSRCRSEMNVQAAWKRGYTGKNVVVTILDDGIERNHPDLAPNYDSYASYDVNGNDYDPSPRYDASNENKHGTRCAGEVAASANNSYCIVGIAYNAKIGGIRMLDGDVTDVVEAKSLGIRPNYIDIYSASWGPDDDGKTVDGPGRLAKQAFEYGIKKGRQGLGSIFVWASGNGGREGDYCSCDGYTNSIYTISVSSATENGYKPWYLEECASTLATTYSSGAFYERKIVTTDLRQRCTDGHTGTSVSAPMVAGIIALALEANSQLTWRDVQHLLVKTSRPAHLKASDWKVNGAGHKVSHFYGFGLVDAEALVVEAKKWTAVPSQHMCVAASDKRPRSIPLVQVLRTTALTSACAEHSDQRVVYLEHVVVRTSISHPRRGDLQIYLVSPSGTKSQLLAKRLLDLSNEGFTNWEFMTVHCWGEKAEGQWTLEIQDLPSQVRNPEKQGKLKEWSLILYGTAEHPYHTFSAHQSRSRMLELSAPELEPPKAALSPSQVEVPEDEEDYTAQSTPGSANILQTSVCHPECGDKGCDGPNADQCLNCVHFSLGSVKTSRKCVSVCPLGYFGDTAARRCRRCHKGCETCSSRAATQCLSCRRGFYHHQEMNTCVTLCPAGFYADESQKNCLKCHPSCKKCVDEPEKCTVCKEGFSLARGSCIPDCEPGTYFDSELIRCGECHHTCGTCVGPGREECIHCAKNFHFHDWKCVPACGEGFYPEEMPGLPHKVCRRCDENCLSCAGSSRNCSRCKTGFTQLGTSCITNHTCSNADETFCEMVKSNRLCERKLFIQFCCRTCLLAG | – | none of the PCs tested could cleave this form | which was superior to the abilities of PC5 and PACE4 to carry out this cleavage | – | – |
| rat PC7 (protein) SIHFNDPKYPQQWHLNNRRSPGRDINVTGVWERNVTGRGVTVVVVDDGVEHTVQDIAPNYSPEGSYDLNSNDPDPMPHPDEENGNHHGTRCAGEIAAVPNNSFCAVGVAYGSRIAGIRVLDGPLTDSMEAVAFNKHYQINDIYSCSWGPDDDGKTVDGPHQLGKAALQHGVMAGRQGFGSIFVVASGNGGQHNDNCNYDGYANSIYTVTIGAVDEEGRMPFYAEECASMLAVTFSGGDKMLRSIVTTDWDLQKGTGCTEGHTGTSAAAPLAAGMIALMLQVRPCLTWRDVQHIIVFTATQYEDHRADWLTNEAGFSHSHQHGFGLLNAWRLVNAAKIWTSVPYLASYVSPMLKENKAVPRSPHSLEVLWNVSRTDLEMSGLKTLEHVAVTVSITHPRRGSLELKLFCPSGMMSLIGAPRSMDSDPNGFNDWTFSTVRCWGERARGVYRLVIRDVGDEPLQVGILQQWQLTLYGSTWSPVDIKDRQSLLESAMSGKYLHDDFTLPCPPGLKIPEEDGYSITPNTLKT | – | none of the PCs tested could cleave this form | PC7 is barely, if at all, able to perform this reaction | PC7 could barely cleave this sequence, even when a 10-fold excess (as assessed by pERTKR-MCA hydrolysis) of activity was employed | – |
| mouse PC5-A (protein) DYDLSHAQSTYFNDPKWPSMWYMHCSDNTHPCQSDMNIEGAWKRGYTGKNIVVTILDDGIERTHPDLMQNYDALASCDVNGNDLDPMPRYDASNENKHGTRCAGEVAATANNSHCTVGIAFNAKIGGVRMLDGDVTDMVEAKSVSYNPQHVHIYSASWGPDDDGKTVDGPAPLTRQAFENGVRMGRRGLGSVFVWASGNGGRSKDHCSCDGYTNSIYTISISSTAESGKKPWYLEECSSTLATTYSSGESYDKKIITTDLRQRCTDNHTGTSASAPMAAGIIALALEANPFLTWRDVQHVIVRTSRAGHLNANDWKTNAAGFKVSHLYGFGLMDAEAMVMEAEKWTTVPQQHVCVESTDRQIKTIRPNSAVRSIYKASGCSDNPNHHVNYLEHVVVRITITHPRRGDLAIYLTSPSGTRSQLLANRLFDHSMEGFKNWEFMTIHCWGERAAGDWVLEVYDTPSQLRNFKTPGKLKEWSLVLYGTSVQPYSPTNEFPKVERFRYSRVEDPTDDYGAEDYAGPCDPECSEVGCDGPGPDHCSDCLHYYYKLKNNTRICVSSCPPGHYHADKKRCRKCAPNCESCFGSHGNQCLSCKYGYFLNEETSSCVTQCPDGSYEDIKKNVCGKCSENCKACIGFHNCTECKGGLSLQGSRCSVTCEDGQFFNGHDCQPCHRFCATCSGAGADGCINCTEGYVMEEGRCVQSCSVSYYLDHSSEGGYKSCKRCDNSCLTCNGPGFKNCSSCPSGYLLDLGTCQMGAICKDATEESWAEGGFCMLVKKNNLCQRKVLQQLCCKTCTFQG | – | none of the PCs tested could cleave this form | which was superior to the abilities of PC5 and PACE4 to carry out this cleavage | The best processing rates were observed with furin and PC5 (not shown) | – |
| [proBACES]FG/V5, doubly tagged soluble form of mouse proBACE (protein) DYKDDDDKQGTHLGIRLPLRSGLAGPPLGLRLPRETDEESEEPGRRGSFVEMVDNLRGKSGQGYYVEMTRGQPLTKLNILVDTGSSNFAVGAAPHPFLHRYYQRQLSSTYRDLRKGVYVPYTQGKWEGELGTDLVSIPHGPNVTVRANIAAITESDKFFINGSNWEGILGLAYAEIARPDDSLEPFFDSLVKQTHIPNIFSLQLCGAGFPLNQTEALASVGGSMIIGGIDHSLYTGSLWYTPIRREWYYEVIIVRVEINGQDLKMDCKEYNYDKSIVDSGTTNLRLPKKVFEAAVKSIKAASSTEKFPDGFWLGEQLVCWQAGTTPWNIFPVISLYLMGEVTNQSFRITILPQQYLRPVEDVATSQDDCYKFAVSQSSTGTVMGAVIMEGFYVVFDRARKRIGFAVSACHVHDEFRTAAVEGPFVTADMEDCGYNIPQTDESTGKPIPNPLLGLDST | – | – | – | – | the resulting material had no detectable activity unless first pre-incubated with furin |
